According to WO2011161189A1 (dated 2011):
Each block holds one binder with its values, some of them ahead of it.

Tests used:
[1] = target: T1, human hepsin (recombinant EE-tagged, amino acids 45-417, enzymatically active two-chain form) (human, UniProt P05981 45-417); test: Biacore (SPR)
T1 construct: range 45-417; The assays say only 'hepsin' or 'purified human hepsin'; also called hHepsin; purified hepsin

mouse hepsin = mouse hepsin (mouse, UniProt O35453 60-436, limits assumed); test: cell-based or functional assay
Chain of mouse hepsin (O35453 60-436 limits assumed): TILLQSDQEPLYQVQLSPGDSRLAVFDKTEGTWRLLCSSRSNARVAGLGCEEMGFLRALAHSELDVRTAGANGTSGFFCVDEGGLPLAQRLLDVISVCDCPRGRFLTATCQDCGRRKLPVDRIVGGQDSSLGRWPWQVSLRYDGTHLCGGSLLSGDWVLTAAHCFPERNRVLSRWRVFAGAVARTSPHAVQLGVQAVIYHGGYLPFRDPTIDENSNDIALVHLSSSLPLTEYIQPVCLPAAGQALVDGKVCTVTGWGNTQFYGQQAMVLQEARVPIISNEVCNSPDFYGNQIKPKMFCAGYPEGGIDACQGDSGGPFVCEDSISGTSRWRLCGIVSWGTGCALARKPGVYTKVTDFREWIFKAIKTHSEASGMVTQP

[2] = target: T1, human hepsin (recombinant EE-tagged, …); test: cell-based or functional assay
[3] = target: T1, human hepsin (recombinant EE-tagged, …); test: SPR kinetics, antibody captured on CM5 chip, hepsin injected, 298 K
cynomolgus hepsin = cynomolgus hepsin (cynomolgus monkey); test: cell-based or functional assay
[4] = target: T1, human hepsin (recombinant EE-tagged, …); test: enzyme kinetics (Ac-KQLR-AMC hydrolysis after preincubation), fit to tight binding inhibitor equations of the mixed type; apparent Ki

T1 sequence (P05981 other isoform, or with tags, fused parts or gaps limits assumed): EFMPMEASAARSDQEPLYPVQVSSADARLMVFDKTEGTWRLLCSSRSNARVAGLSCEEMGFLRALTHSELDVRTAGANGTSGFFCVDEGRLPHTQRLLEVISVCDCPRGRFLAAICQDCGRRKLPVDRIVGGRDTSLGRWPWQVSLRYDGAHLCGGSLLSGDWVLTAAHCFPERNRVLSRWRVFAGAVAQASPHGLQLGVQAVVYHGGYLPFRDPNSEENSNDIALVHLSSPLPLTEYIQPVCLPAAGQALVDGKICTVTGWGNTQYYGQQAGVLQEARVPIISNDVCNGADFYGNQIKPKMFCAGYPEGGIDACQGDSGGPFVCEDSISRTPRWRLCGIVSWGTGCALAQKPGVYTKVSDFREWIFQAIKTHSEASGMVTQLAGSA

B2: Mab 2.3.35 (antibody, V domains shown)
VH: QVQLQQSGPELVKPGASVKVSCKASGYTFTDFVINWVKQRTGQGLEWIGEIYPRSNSIYSNEKFKGKATLTTDKSSNTAYMQVSSLTSEDSAVYFCARGSGDYAMDYWGQGTSVTVSS
VL: ENVLTQSPAIMSASPGEKVTMTCSASSSVTYMHWYQQKSSTSPKLWIYDTSKLASGVPGRFSGSGSGNSYSLTIRSMEAEDVATYFCFQGSGFPLTFGGGTKLEIK
notes: also called antibody 2.3.35
- Kd [1]: 22 nM
- IC 50 in enzymatic activity assay of human hepsin [2]: 7 nM

B4: Mab53 (antibody, V domains shown)
VH: QVQLVQSGAEVKKPGASVKVSCKASGYTFTDYSMRWVRQAPGQGLEWMGWINTETGNPAYAQKFQGRVTMTRDTSTSTVYMELSSLRSEDTAVYYCARGFAYWGQGTLVTVSS
VL: QTVVTQEPSLTVSPGGTVTLTCRSSTGAVTTSNYANWVQQKPGQAFRGLIGDTNNRAPWTPARFSGSLLGGKAALTLSGVQPEDEAEYYCALWYSNHFIFGSGTKVTVL
notes: Humanized variant of Mab 2.7.35
- Kd [3]: 36 nM

Further binders by falling Kd [3], results first:

- Kd [1]: 4 nM
- IC 50 in enzymatic activity assay of murine hepsin (mouse hepsin): > 200 nM
- IC 50 in enzymatic activity assay of human hepsin [2]: 14 nM
- Kd [3]: 31.5 nM
B1: Mab 2.7.35 (antibody, V domains shown)
VH: QIQLVQSGPELKKPGETVKISCKASGYTFTDYSMRWVKQAPGKGLKWMGWINTETGNPTYADDFKGRFAFSLETSASTAYLQINNLKNEDTARYFCARGFAYWGQGTLVTVSA
VL: QAVVTQESALTTSPGETVTLTCRSSTGAVTTSNYANWVQEKPDHLFTGLIGDTNNRAPGVPARFSGSLIGDKAALTITGAQTEDEAIYFCALWYSNHFIFGSGTKVTVL
notes: Mouse monoclonal antibody from Balb/c hybridoma; also called mouse Mab 2.7.35; mH35

- IC 50, human hepsin inhibition assay (FRET peptide substrate) [2]: 1.02 nM
- inhibition increase compared to the chimeric antibody [2]: 6.7 fold
- inhibition increase compared to the murine antibody [2]: 14.7 fold
- IC 50, cynomolgous hepsin assay (FRET peptide substrate) (cynomolgus hepsin): 0.99 nM
- Kd [3]: 7.1 nM
- Ki [4]: 0.39 nM
B3: Mab55 (antibody, V domains shown)
VH: QVQLVQSGSELKKPGASVKVSCKASGYTFTDYSMRWVRQAPGQGLEWMGWINTETGSPTYADDFKGRFVFSLDTSVSTAYLQISSLKAEDTAVYYCARGFAYWGQGTLVTVSS
VL: QTVVTQEPSLTVSPGGTVTLTCRSSTGAVTTSNYANWVQQKPGQAFRGLIGDTNNRAPWTPARFSGSLLGGKAALTLSGVQPEDEAEYYCALWYSNHFIFGSGTKVTVL
notes: Humanized variant of Mab 2.7.35, stably expressed in CHO; also called hH35; humanized antibody Mab55
